Data published in publication PMC10471632, “Protein engineering and iterative multimodule optimization for vitamin B6 production in Escherichia coli” (Nature Communications, 2023).

Key:
Assay in all cases: NADH formation at A340
NADH formation at A340 [1] = substrate: O=C[C@H](O)[C@H](O)COP(=O)(O)O; format: biochemical, Brumicola nitratireducens; details: NAD+ 2 mM, 50 mM PPi buffer pH 8.6, 1 mM DTT, 37 °C
Excerpt: (§1) NADH formation at A340 on […]

NADH formation at A340 [2] = substrate: NC(=O)c1ccc[n+]([C@@H]2O[C@H](COP(=O)(O)OP(=O)(O)OC[C@H]3O[C@@H](n4cnc5c(N)ncnc54)[C@H](O)[C@@H]3O)[C@@H](O)[C@H]2O)c1; format: biochemical, Brumicola nitratireducens; details: E4P 8 mM, 50 mM PPi buffer pH 8.6, 1 mM DTT, 37 °C, varied: cofactor
Excerpt: as §1

NADH formation at A340 [3] = substrate: O=C[C@H](O)[C@H](O)COP(=O)(O)O; format: biochemical, Escherichia coli; details: NAD+ 2 mM, 50 mM PPi buffer pH 8.6, 1 mM DTT, 37 °C
Excerpt: (§2) NADH formation at A340 on Eco_Epd

NADH formation at A340 [4] = substrate: NC(=O)c1ccc[n+]([C@@H]2O[C@H](COP(=O)(O)OP(=O)(O)OC[C@H]3O[C@@H](n4cnc5c(N)ncnc54)[C@H](O)[C@@H]3O)[C@@H](O)[C@H]2O)c1; format: biochemical, Escherichia coli; details: E4P 8 mM, 50 mM PPi buffer pH 8.6, 1 mM DTT, 37 °C, varied: cofactor
Excerpt: as §2

Protein	Km (NADH formation at A340 [1])	kcat (NADH formation at A340 [1])	kcat/Km (NADH formation at A340 [1])	Km (NADH formation at A340 [2])	kcat (NADH formation at A340 [2])	kcat/Km (NADH formation at A340 [2])	Km (NADH formation at A340 [3])	kcat (NADH formation at A340 [3])	kcat/Km (NADH formation at A340 [3])	Km (NADH formation at A340 [4])	kcat (NADH formation at A340 [4])	kcat/Km (NADH formation at A340 [4])
Gni_Epd (Brumicola nitratireducens FR1064) (protein) MLRIAINGFGRIGRNVLRALYESGRNDQIQVVAINEIASPEGVAHLLKYDTAHGRFKGTVDYTDQCLIVNGDKIPLFQKNNIEELAWSTVNVDIVLECTGVFSSRESAQQHIDNGARKVLFSQPCGQDMDATIVFGVNHKTLKPSDVIVSNGSCTTNCIVPIIQVLDEAFGVESGTITTIHSSMNDQQVIDAYHPDLRRTRAASQSIIPVDTRLHVGIERILPRFAGKFEAIAVRVPTINVTAMDLSVTLRDKVTVSDVNAVLKKSAHGELKRIIDYTEEPLVSVDFNHDPHSSIVDGTQTRVSHKQLVKTLVWCDNEWGFANRMLDTALHMHQLDS	0.737 mM	0.323 s⁻¹	438 M⁻¹ s⁻¹	0.051 mM	0.313 s⁻¹	6140 M⁻¹ s⁻¹						
Eco_Epd (Escherichia coli K-12) (protein) TVRVAINGFGRIGRNVVRALYESGRRAEITVVAINELADAAGMAHLLKYDTSHGRFAWEVRQERDQLFVGDDAIRVLHERSLQSLPWRELGVDVVLDCTGVYGSREHGEAHIAAGAKKVLFSHPGSNDLDATVVYGVNQDQLRAEHRIVSNASCTTNCIIPVIKLLDDAYGIESGTVTTIHSAMHDQQVIDAYHPDLRRTRAASQSIIPVDTKLAAGITRFFPQFNDRFEAIAVRVPTINVTAIDLSVTVKKPVKANEVNLLLQKAAQGAFHGIVDYTELPLVSVDFNHDPHSAIVDGTQTRVSGAHLIKTLVWCDNEWGFANRMLDTTLAMATVAFR							0.969 mM	0.15 s⁻¹	155 M⁻¹ s⁻¹	0.717 mM	3.23 s⁻¹	4510 M⁻¹ s⁻¹
